Starred links: 1 amine or outer side, 2 acyl side, 3 side chain; linkers in the order of their positions; H or OH if unused. Positions of bridges follow the written chain, without caps; N, C: chain ends. Non-standard residues stand in square brackets, D forms with d. Primed or numbered codes have the meaning given here. No end group written: not given here. *: point of attachment. PyrS2″ = (S)-3-amino-1-((pent-4-en-1-yloxy)carbonyl)pyrrolidine-3-carboxylic acid (stapling residue), C=CCCCOC(=O)N1CC[C@@](N[*:1])(C(=O)[*:2])C1; B5(4) = 2,2-bis(4-pentenyl)glycine = 2-amino-2-(pent-4-en-1-yl)hept-6-enoic acid (stitching residue), C=CCCCC(CCCC=C)(N[*:1])C(=O)[*:2]; B5(5) = 2,2-bis(4-pentenyl)glycine, 2-amino-2-(pent-4-en-1-yl)hept-6-enoic acid (stitching residue), C=CCCCC(CCCC=C)(N[*:1])C(=O)[*:2]; TfeGA = (S)-2-amino-3-((carboxymethyl)(2,2,2-trifluoroethyl)amino)propanoic acid, O=C([C@H](CN(CC(=O)[*:3])CC(F)(F)F)N[*:1])[*:2]; PyrS2 = (S)-3-amino-1-((pent-4-en-1-yloxy)carbonyl)pyrrolidine-3-carboxylic acid, C=CCCCOC(=O)N1CC[C@@](N[*:1])(C(=O)[*:2])C1; B5(12) = 2-amino-2-(pent-4-en-1-yl)hept-6-enoic acid (two olefin side chains), C=CCCCC(CCCC=C)(N[*:1])C(=O)[*:2]; B5(13) = 2-amino-2-(pent-4-en-1-yl)hept-6-enoic acid (two alkene chains), C=CCCCC(CCCC=C)(N[*:1])C(=O)[*:2]; B5(3) = 2,2-bis(4-pentenyl)glycine (stitching residue), C=CCCCC(CCCC=C)(N[*:1])C(=O)[*:2]; B5 = 2-amino-2-(pent-4-en-1-yl)hept-6-enoic acid, C=CCCCC(CCCC=C)(N[*:1])C(=O)[*:2]; Phe(2-CF3) = N[C@@H](Cc1ccccc1C(F)(F)F)C(=O)O; Phe(2-Cl) = N[C@@H](Cc1ccccc1Cl)C(=O)O; Phe(2-OMe) = COc1ccccc1C[C@H](N)C(=O)O; 1Nal = N[C@@H](Cc1cccc2ccccc12)C(=O)O; 2Nal = N[C@@H](Cc1ccc2ccccc2c1)C(=O)O; Bta = N[C@@H](Cc1csc2ccccc12)C(=O)O; αAllylPro = C=CC[C@@]1(C(=O)O)CCCN1; tBuAla = CC(C)(C)C[C@H](N)C(=O)O; 2Thi = N[C@@H](Cc1cccs1)C(=O)O; 3Thi = N[C@@H](Cc1ccsc1)C(=O)O; S8 = C=CCCCCCC[C@](C)(N)C(=O)O; Thr(ol) = C[C@@H](O)[C@H](N)CO; hSer = N[C@@H](CCO)C(=O)O; Abu = CC[C@H](N)C(=O)O; Alaol = C[C@@H](CO)N*

The target of assay [1] is full-length beta-Catenin (Uniprot ID P35222) (Homo sapiens (Human)) (UniProt P35222). As to the kind of experiment: fluorescence polarization competition; full-length beta-catenin with 5FAM-TCF4(10-53) probe as competitor.
Target sequence in this assay (P35222 2-781 limits assumed): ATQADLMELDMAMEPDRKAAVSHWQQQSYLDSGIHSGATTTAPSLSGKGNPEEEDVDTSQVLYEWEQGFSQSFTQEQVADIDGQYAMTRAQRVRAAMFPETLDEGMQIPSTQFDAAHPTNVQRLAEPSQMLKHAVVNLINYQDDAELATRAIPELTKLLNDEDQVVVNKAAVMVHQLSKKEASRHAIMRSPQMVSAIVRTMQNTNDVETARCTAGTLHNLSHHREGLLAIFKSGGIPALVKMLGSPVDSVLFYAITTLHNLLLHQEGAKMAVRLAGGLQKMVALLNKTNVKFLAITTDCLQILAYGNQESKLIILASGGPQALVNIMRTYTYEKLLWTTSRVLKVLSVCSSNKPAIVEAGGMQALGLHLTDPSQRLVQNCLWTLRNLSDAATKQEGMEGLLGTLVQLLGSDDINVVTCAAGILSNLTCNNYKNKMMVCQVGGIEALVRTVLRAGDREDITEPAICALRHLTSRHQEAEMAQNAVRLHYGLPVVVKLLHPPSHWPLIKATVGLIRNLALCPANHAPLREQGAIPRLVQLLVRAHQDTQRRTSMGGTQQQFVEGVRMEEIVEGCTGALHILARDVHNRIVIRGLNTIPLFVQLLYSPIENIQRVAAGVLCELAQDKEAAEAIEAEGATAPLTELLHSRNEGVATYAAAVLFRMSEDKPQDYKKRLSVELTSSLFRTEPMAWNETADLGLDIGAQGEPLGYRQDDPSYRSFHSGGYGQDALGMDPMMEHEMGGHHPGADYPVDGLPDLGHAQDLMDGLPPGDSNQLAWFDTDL
The target of assay [2] is Bcat-Halo (UniProt P35222). Description: NanoBRET Abs IC50, HEK293 cells; B-cat-Halo/TCF4-Luc engagement, competitor TCF4-Luc.
The target of assay [3] is full-length beta-Catenin (Uniprot ID P35222) (Homo sapiens (Human)) (UniProt P35222). As to the kind of experiment: FP competition; full-length beta-catenin, competitor 5FAM-TCF4(10-53).
Target sequence in this assay (P35222 whole entry, the tested form may be a part): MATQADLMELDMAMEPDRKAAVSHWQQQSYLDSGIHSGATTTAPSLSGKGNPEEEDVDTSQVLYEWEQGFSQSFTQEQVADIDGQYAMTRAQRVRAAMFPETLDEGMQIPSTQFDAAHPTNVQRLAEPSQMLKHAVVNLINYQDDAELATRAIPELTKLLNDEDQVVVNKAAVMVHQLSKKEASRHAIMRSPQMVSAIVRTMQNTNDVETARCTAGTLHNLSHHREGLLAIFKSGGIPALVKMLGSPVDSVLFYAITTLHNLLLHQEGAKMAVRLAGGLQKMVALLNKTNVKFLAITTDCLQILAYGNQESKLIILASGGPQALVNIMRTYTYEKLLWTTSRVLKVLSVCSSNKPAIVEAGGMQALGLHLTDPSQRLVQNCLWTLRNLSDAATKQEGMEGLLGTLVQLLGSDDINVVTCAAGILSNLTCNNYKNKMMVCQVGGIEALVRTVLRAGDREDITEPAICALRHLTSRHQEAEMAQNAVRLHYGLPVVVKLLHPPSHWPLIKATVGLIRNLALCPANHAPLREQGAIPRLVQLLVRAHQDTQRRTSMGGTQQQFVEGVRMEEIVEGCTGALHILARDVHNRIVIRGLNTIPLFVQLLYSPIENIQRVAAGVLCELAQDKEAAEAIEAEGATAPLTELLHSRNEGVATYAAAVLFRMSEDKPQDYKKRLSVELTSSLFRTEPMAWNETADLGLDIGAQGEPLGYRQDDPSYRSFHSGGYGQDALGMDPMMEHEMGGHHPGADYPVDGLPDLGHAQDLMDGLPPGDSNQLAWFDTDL
Assay [4] has the same target. Description: competition fluorescence polarization; full-length beta-catenin, 5FAM-TCF4(10-53) probe as competitor.
Target sequence in this assay (P35222 whole entry, the tested form may be a part): as above
The target is the same in assay [5]. As to the kind of experiment: fluorescence polarization competition; full-length beta-catenin, competitor 5FAM-TCF4(10-53) probe. On the technique in general: Fluorescence polarisation rises when a labelled molecule tumbles more slowly, as on binding a larger partner.
Target sequence in this assay (P35222 whole entry, the tested form may be a part): as above
Assay [6] deals with Bcat-Halo (UniProt P35222). Description: NanoBRET Abs IC50 in HEK293 cells; Bcat-Halo, TCF4-Luc as competitor. (In general: Bioluminescence resonance energy transfer reports proximity on the nanometre scale.)
The target of assay [7] is full-length beta-Catenin (Uniprot ID P35222) (Homo sapiens (Human)) (UniProt P35222). As to the kind of experiment: fluorescence polarization competition; displacement of 5FAM-TCF4(10-53) from full-length beta-catenin.
Target sequence in this assay (P35222 whole entry, the tested form may be a part): as above
Assay [8] shares this target. Description: fluorescence polarization competition; 10 nM full-length beta-catenin with 10 nM 5FAM-TCF4 (residues 10-53) probe as competitor.
Target sequence in this assay (P35222 2-781 limits assumed): as the sequence (P35222 2-781 limits assumed) above
Assay [9] addresses Bcat-Halo (beta-catenin HaloTag construct expressed in HEK293 cells) (UniProt P35222). As to the kind of experiment: NanoBRET IC50 in HEK293 cells; Bcat-Halo with TCF4-Luc as competitor.
Assay [10] has as its target full-length beta-Catenin (Uniprot ID P35222) (Homo sapiens (Human)) (UniProt P35222). Description: FP competition vs 5FAM-TCF4(10-53), full-length beta-catenin.
Target sequence in this assay (P35222 2-781 limits assumed): as above
Assay [11] addresses Bcat-Halo (UniProt P35222). Description: NanoBRET Abs IC50, HEK293 cells, B-cat-Halo/TCF4-Luc; competitor TCF4-Luc.
Assay [12] concerns the target Bcat-Halo (UniProt P35222). As to the kind of experiment: NanoBRET absolute IC50, HEK293 cells, Bcat-Halo/TCF4-Luc engagement.
For assay [13], the target named is full-length beta-Catenin (Uniprot ID P35222) (Homo sapiens (Human)) (UniProt P35222). As to the kind of experiment: FP competition, full-length beta-catenin, competitor probe 5FAM-TCF4 10-53.
Target sequence in this assay (P35222 2-781 limits assumed): as above
Assay [14] has the same target. As to the kind of experiment: FP competition: displacement of 5FAM-TCF4(10-53) from full-length beta-catenin.
Target sequence in this assay (P35222 whole entry, the tested form may be a part): as the sequence (P35222 whole entry, the tested form may be a part) above
Assay [15] has the same target. Description: fluorescence polarization competition; full-length beta-catenin, 5FAM-TCF4(10-53) probe as competitor.
Target sequence in this assay (P35222 2-781 limits assumed): as the sequence (P35222 2-781 limits assumed) above
The target in assay [16] is B-cat-Halo (beta-catenin HaloTag NanoBRET construct expressed in HEK293 cells) (UniProt P35222). As to the kind of experiment: NanoBRET Abs IC50 in HEK293 cells; Bcat-Halo, TCF4-Luc as competitor.
For assay [17], the target named is full-length beta-Catenin (Uniprot ID P35222) (Homo sapiens (Human)) (UniProt P35222). As to the kind of experiment: fluorescence polarization competition; peptide displaces 5FAM-TCF4(10-53) from full-length beta-catenin.
Target sequence in this assay (P35222 2-781 limits assumed): as above
The target in assay [18] is B-cat-Halo (beta-catenin HaloTag NanoBRET construct expressed in HEK293 cells) (UniProt P35222). As to the kind of experiment: NanoBRET in HEK293 cells, Bcat-Halo + TCF4-Luc (competitor partner TCF4).
Assay [19] deals with full-length beta-Catenin (Uniprot ID P35222) (Homo sapiens (Human)) (UniProt P35222). Description: fluorescence polarization competition: peptide titrated against 10 nM full-length beta-catenin + 10 nM 5FAM-TCF4(10-53) probe.
For assay [20] the target is unchanged. Description: fluorescence polarization competition; full-length beta-catenin with 5FAM-labeled TCF4 (10-53) probe as competitor.
Target sequence in this assay (P35222 whole entry, the tested form may be a part): as the sequence (P35222 whole entry, the tested form may be a part) above
Assay [21] shares this target. Description: fluorescence polarization competition; full-length beta-catenin, competitor probe 5FAM-TCF4(10-53).
For assay [22], the target named is B-cat-Halo (beta-catenin HaloTag NanoBRET construct expressed in HEK293 cells) (UniProt P35222). Description: NanoBRET Abs IC50; HEK293 cells transfected with B-cat-Halo and TCF4-Luc (competitor: TCF4-Luc).
For assay [23] the target is unchanged. Description: NanoBRET in HEK293 cells, Bcat-Halo + TCF4-Luc, peptide at 10 uM.

Chain of B-cat-Halo (beta-catenin HaloTag NanoBRET construct expressed in HEK293 cells) (P35222 whole entry): as the sequence (P35222 whole entry, the tested form may be a part) above
Chain of Bcat-Halo (P35222 whole entry): as the sequence (P35222 whole entry, the tested form may be a part) above
Chain of Bcat-Halo (beta-catenin HaloTag construct expressed in HEK293 cells) (P35222 whole entry): as the sequence (P35222 whole entry, the tested form may be a part) above

As usually defined, the IC50 is the concentration that inhibits the measured activity by half. Broadly, the EC50 is the concentration giving half of the maximal effect. Regarding [αAllylPro]D[tBuAla][B5(4)]DDAAFS[PyrS2″]F[Bta]S-NH2 (staple 1-4, 4-11) [I-1357], the figures for the IC50 (in assay [1]; with Bcat-Halo [2]) were 10 nM and 33600 nM, respectively. In assay [3], this molecule came in with an EC50 of 10 nM.

B1: I-1356 (peptide)
peptide: [αAllylPro]D[tBuAla][B5(4)]DDAAFS[PyrS2″]F[Bta]S-NH2
modifications: staple 1-4, 4-11; not fully specified; printed as PL3-Asp-Npg-B5-Asp-Asp-Ala-Ala-Phe-Ser-PyrS2-Phe-BztA-Ser-NH2
As for B1, the IC50 in assay [1] is 23 nM; in the assay with Bcat-Halo [2], more than 20000 nM. Besides, in assay [3], the EC50 amounted to 23 nM.

Take Ac-[αAllylPro]D[Abu][B5]DDAAFN[S8]F[Bta]H-NH2 (staple 1-4, 4-11) [I-574]: the IC50 in assay [4] is 36 nM; in the assay with Bcat-Halo [6], more than 20000 nM. The molecule also yielded an EC50 in assay [5] of 36 nM.

On to Ac-[αAllylPro]D[tBuAla][B5(4)]DTAAFN[PyrS2][3Thi][Bta]Q-NH2 (staple 1-4, 4-11) [I-844], for which the IC50 came out at 6 nM in [7] and 10700 nM in [9]. Moreover, in assay [8], the EC50 worked out at 6 nM.

On to Ac-[αAllylPro]D[tBuAla][B5(3)]DHAAFN[PyrS2″][3Thi][Bta]Q-NH2 (staple 1-4, 4-11) [I-864], for which the IC50 in assay [10] came out at 12 nM; in assay [9] it was 29100 nM; with Bcat-Halo [11], 40000 nM. The molecule also had an EC50 in [8] of 12 nM.

With [αAllylPro]D[tBuAla][B5(4)]DDAAFF[PyrS2″][2Thi][Bta]Q-NH2 (staple 1-4, 4-11) [I-1345], the IC50 with Bcat-Halo [2] came out at 4700 nM; in the assay with Bcat-Halo [12] it was 4700 nM; in assay [13] it was 15 nM. This molecule showed an EC50 in assay [3] of 15 nM.

For the molecule Ac-[αAllylPro]D[tBuAla][B5(5)]DDAAFT[PyrS2″][3Thi][2Nal]Q-NH2 (staple 1-4, 4-11) [I-1233], the EC50 in assay [14] came to 24 nM. The IC50 in assay [15] came out at 24 nM; in assay [16], 54500 nM.

Turning to Ac-[αAllylPro]D[tBuAla][B5(5)]DEAAFN[PyrS2][3Thi][Bta]-NH2 (staple 1-4, 4-11) [I-786], the IC50 in [17] was 8 nM; in assay [18], 17100 nM. The EC50 in [19] came out at 8 nM.

Consider Ac-[αAllylPro]D[tBuAla][B5(4)]D[TfeGA]AAFT[PyrS2″][Phe(2-Cl)][Bta][Thr(ol)] (staple 1-4, 4-11) [I-1241], for which the EC50 in assay [14] was 19 nM. Besides, the IC50 amounted to 19 nM in [15] and 15700 nM in assay [16].

On to Ac-[αAllylPro]D[tBuAla][B5(5)]DDAAFN[S8]F[Bta]H-NH2 (staple 1-4, 4-11) [I-582], for which the IC50 in [4] stood at 17.5 nM; in the assay with Bcat-Halo [6], 15800 nM. The molecule further displayed an EC50 in assay [5] of 17.5 nM.

Ac-[αAllylPro]D[tBuAla][B5(12)]DNAAFN[PyrS2][3Thi][Bta]-NH2 (staple 1-4, 4-11) [I-857]: the IC50 in [10] was 15 nM; in assay [9], 50600 nM; with Bcat-Halo [11], 30600 nM. In assay [8], this molecule showed an EC50 of 15 nM.

Regarding Ac-[αAllylPro]D[tBuAla][B5(4)]DDAAF[Phe(2-CF3)][PyrS2][3Thi][Bta]Q-NH2 (staple 1-4, 4-11) [I-1363], the IC50 in assay [1] worked out at 9 nM; with Bcat-Halo [2], 5500 nM. Also, the EC50 in assay [3] came out at 9 nM.

In assay [20], Ac-[αAllylPro]D[tBuAla][B5(3)]D[TfeGA]AAFF[PyrS2″]F[Bta]Q-NH2 (staple 1-4, 4-11) [I-988] registered an EC50 of 5 nM. Moreover, the IC50 in assay [21] is 5 nM; in assay [22] it was 13900 nM.

Take Ac-[αAllylPro]D[tBuAla][B5(5)]DDAAFT[PyrS2″][3Thi][1Nal]Q-NH2 (staple 1-4, 4-11) [I-1232]: the EC50 in assay [14] stood at 31 nM. The IC50 in assay [15] came to 31 nM; in assay [16] it was 43300 nM.

Regarding Ac-[αAllylPro]D[tBuAla][B5(13)]DDAAFN[PyrS2][Phe(2-OMe)][Bta]H-NH2 (staple 1-4, 4-11) [I-781], in assay [23], the NanoBRET % inh @ 10 uM was found to be 24%. Also, the IC50 in assay [17] was found to be 5 nM; in assay [18], 11600 nM. Also, in assay [19], the EC50 was 5 nM.

In [20], Ac-[αAllylPro]D[tBuAla][B5(3)]D[TfeGA]AAFF[PyrS2″][Phe(2-Cl)][Bta]S-NH2 (staple 1-4, 4-11) [I-990] registered an EC50 of 41 nM. Also, the IC50 in assay [21] is 41 nM; in assay [22] it was 8800 nM.

As to Ac-[αAllylPro]D[tBuAla][B5(5)]DDAAFN[PyrS2][Phe(2-Cl)][Bta]H-NH2 (staple 1-4, 4-11) [I-784], in assay [23], the NanoBRET % inh @ 10 uM was determined as 35.1%. In addition, the figures for the IC50 in assay [17] and in [18] were 6 nM and 12100 nM, respectively. Further, the EC50 in assay [19] came out at 6 nM.

As to Ac-[αAllylPro]D[tBuAla][B5(3)]D[TfeGA]AAF[hSer][S8][Phe(2-Cl)][Bta]Q-NH2 (staple 1-4, 4-11) [I-996], in [20], the EC50 turned out to be 21 nM. The IC50 was 21 nM in assay [21] and 11300 nM in assay [22].

As to Ac-[αAllylPro]D[tBuAla][B5(4)]D[TfeGA]AAFT[PyrS2″][Phe(2-Cl)][Bta]-Alaol (staple 1-4, 4-11) [I-1242], the 50% effective concentration (EC50) in assay [14] amounted to 30 nM. The IC50 in assay [15] was 30 nM; in assay [16] it was more than 20000 nM.

On to Ac-[αAllylPro]D[Abu][B5(4)]DEAAFQ[S8]F[Bta]H-NH2 (staple 1-4, 4-11) [I-571], for which the figures for the IC50 (in [4]; with Bcat-Halo [6]) were 32 nM and 15600 nM, respectively. Further, the EC50 in assay [7] worked out at 32 nM.
